Experimental data from PMC5975642 (2018).

Columns and labels:
MC4R [1] = biological target: T1, MC4R (Homo sapiens, UniProt P32245); assay: cell competition binding against biotinylated alpha-MSH
MC4R [2] = biological target: T1, MC4R; assay: cell saturation binding

T1 sequence (P32245 whole entry): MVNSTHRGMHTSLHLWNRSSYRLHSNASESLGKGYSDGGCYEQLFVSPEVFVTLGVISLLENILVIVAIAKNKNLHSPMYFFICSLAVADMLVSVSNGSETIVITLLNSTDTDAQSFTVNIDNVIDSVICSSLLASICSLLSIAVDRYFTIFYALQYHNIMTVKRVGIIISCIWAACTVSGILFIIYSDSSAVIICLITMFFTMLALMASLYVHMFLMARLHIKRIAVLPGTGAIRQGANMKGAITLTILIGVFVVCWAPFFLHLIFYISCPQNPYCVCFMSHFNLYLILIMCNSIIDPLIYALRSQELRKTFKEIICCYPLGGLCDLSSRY

| Binder | Ki (MC4R [1]) [nM] | Kd (MC4R [2]) [nM] |
| --- | --- | --- |
| LCN2 (protein) QDSTQNLIPAPSLLTVPLQPDFRSDQFRGRWYVVGLAGNAVQKKTEGSFTMYSTIYELQENNSYNVTSILVRDQDQGCRYWIRTFVPSSRAGQFTLGNMHRYPQVQSYNVQVATTDYNQFAMVFFRKTSENKQYFKITLYGRTKELSPELKERFTRFAKSLGLKDDNIIFSVPTDQCIDN | 46.3 | – |
| LCN2 (protein, biotinylated LCN2) QDSTQNLIPAPSLLTVPLQPDFRSDQFRGRWYVVGLAGNAVQKKTEGSFTMYSTIYELQENNSYNVTSILVRDQDQGCRYWIRTFVPSSRAGQFTLGNMHRYPQVQSYNVQVATTDYNQFAMVFFRKTSENKQYFKITLYGRTKELSPELKERFTRFAKSLGLKDDNIIFSVPTDQCIDN | – | 51.4 |
